These are literature values, as cited in patent US20040115213A1, “Use of IL-2 receptor antibodies” (priority 2002, published 2004).

For data set [1] the following is noted: patients given amphotericin-B.
For data set [2] the following is noted: monkeys; Hakimi et al.
The conditions of data set [3]: human patients.

With `CC1OC(O[C@H]2/C=C/C=C/C=C/C=C/C=C/C=C/C=C/[C@H](C)[C@@H](O)[C@@H](C)[C@H](C)OC(=O)C[C@H](O)C[C@H](O)CC[C@@H](O)[C@H](O)C[C@H](O)C[C@]3(O)C[C@H](O)C(C(=O)O)[C@H](C2)O3)C(O)C(N)C1O` (stereo partly drawn) [amphotericin-B, [1R-(1 R *,3 S *, 5 R *, 6 R *,9 R *,11 R *,15 S *,16 R *,17 R *,18 S *, 19 E,21 E, 23 E,25 E, 27 E,29 E,31 E,33 R *,35 S *,36 R *,37 S *)]-33-[(3-Amino-3,6-dideoxy-(beta)-D-mannopyranosyl)oxy]-1,3,5,6,9,11,17,37-octahydroxy-15,16,18-trimethyl-13-oxo-14,39-dioxabi-cyclo[33.3.1]nonatriaconta-19,21,23,25,27,29,31-heptaene-36-carboxylic acid], in data set [1], the “patients experiencing some degree of nephrotoxicity” value is recorded as “Over 80%”.
“humanized anti-Tac: humanized monoclonal antibody that binds to the p55 subunit of the human IL-2 receptor, described in U.S. Pat. No. 5,530,101”: the “immunogenicity relative to mouse antibody” value in data set [2] is recorded as “reduced immunogenicity relative to mouse anti-Tac”. Also, the “immunogenicity (HAMA response)” value in data set [3] is “(essentially) non-immunogenic”.
